# Data published in patent US9908919B2, “Cyclic apelin derivatives for the treatment of heart failure” (priority 2013, dated 2018).
# Bridges are numbered along the chain shown (N, C = ends). [ ]: non-standard residue; d: D form. pGlu = O=C1CC[C@@H](C(=O)O)N1; dNle = CCCC[C@@H](N)C(=O)O
# T1: human APJ receptor (hAPJ) (human, UniProt P35414 1-380)
# T1 sequence (looked up): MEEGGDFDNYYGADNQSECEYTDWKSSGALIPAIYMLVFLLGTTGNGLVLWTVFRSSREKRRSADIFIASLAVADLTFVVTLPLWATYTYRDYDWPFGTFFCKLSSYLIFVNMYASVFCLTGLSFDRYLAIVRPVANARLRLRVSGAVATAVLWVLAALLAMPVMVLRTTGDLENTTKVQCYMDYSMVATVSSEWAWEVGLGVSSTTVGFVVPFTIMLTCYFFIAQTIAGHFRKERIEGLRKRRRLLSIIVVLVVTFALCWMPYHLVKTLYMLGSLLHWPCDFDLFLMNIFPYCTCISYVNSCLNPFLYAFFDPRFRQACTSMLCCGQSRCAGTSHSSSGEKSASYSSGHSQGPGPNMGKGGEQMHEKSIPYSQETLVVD
# Target: T1, human APJ receptor (hAPJ)
# Assay: cell-based or functional assay
row,Binder,hAPJ Ca^2+ Flux EC50 [nM]
1,"ERCRLCHKGPLAF (HELM PEPTIDE1{[Glp].R.C.R.L.C.H.K.G.P.[CCCC[C@@H](N[*:1])C(=O)[*:2]].[dA].[dF]}$PEPTIDE1,PEPTIDE1,3:R3-6:R3$$$V2.0; SMILES CCCC[C@@H](NC(=O)[C@@H]1CCCN1C(=O)CNC(=O)[C@H](CCCCN)NC(=O)[C@H](Cc1c[nH]cn1)NC(=O)[C@@H]1CSSC[C@H](NC(=O)[C@H](CCCNC(=N)N)NC(=O)[C@@H]2CCC(=O)N2)C(=O)N[C@@H](CCCNC(=N)N)C(=O)N[C@@H](CC(C)C)C(=O)N1)C(=O)N[C@H](C)C(=O)N[C@H](Cc1ccccc1)C(=O)O) [Example 2: pE-R-C*-R-L-C*-H-K-G-P-(D-Nle)-a-f-OH (Disulfide C3-C6)]",77
2,[pGlu]RCRLCHKGP[dNle]-{NH‑phenethyl} (disulfide 3-6) [Example 3: pE-R-C*-R-L-C*-H-K-G-P-(D-Nle)-NH(Phenethyl) (Disulfide C3-C6)],871
3,"ERCRLCHKGPFAF (HELM PEPTIDE1{[Glp].R.[dC].R.L.C.H.K.G.P.[dF].[dA].[dF]}$PEPTIDE1,PEPTIDE1,3:R3-6:R3$$$V2.0; SMILES CC(C)C[C@@H]1NC(=O)[C@H](CCCNC(=N)N)NC(=O)[C@H](NC(=O)[C@H](CCCNC(=N)N)NC(=O)[C@@H]2CCC(=O)N2)CSSC[C@@H](C(=O)N[C@@H](Cc2c[nH]cn2)C(=O)N[C@@H](CCCCN)C(=O)NCC(=O)N2CCC[C@H]2C(=O)N[C@H](Cc2ccccc2)C(=O)N[C@H](C)C(=O)N[C@H](Cc2ccccc2)C(=O)O)NC1=O) [Example 4: pE-R-c*-R-L-C*-H-K-G-P-f-a-f-OH (Disulfide C3-C6)]",496
4,"ERCRLCHKGPLPF (HELM PEPTIDE1{[Glp].R.C.R.L.C.H.K.G.P.[Nle].P.F}$PEPTIDE1,PEPTIDE1,3:R3-6:R3$$$V2.0; SMILES CCCC[C@H](NC(=O)[C@@H]1CCCN1C(=O)CNC(=O)[C@H](CCCCN)NC(=O)[C@H](Cc1c[nH]cn1)NC(=O)[C@@H]1CSSC[C@H](NC(=O)[C@H](CCCNC(=N)N)NC(=O)[C@@H]2CCC(=O)N2)C(=O)N[C@@H](CCCNC(=N)N)C(=O)N[C@@H](CC(C)C)C(=O)N1)C(=O)N1CCC[C@H]1C(=O)N[C@@H](Cc1ccccc1)C(=O)O) [Example 1: pE-R-C*-R-L-C*-H-K-G-P-Nle-P-F-OH (Disulfide C3-C6)]",3.5

# Continued, values first:
row,hAPJ Ca^2+ Flux EC50 [nM],Binder
1,12.3,"ERPRLCHKCPFAF (HELM PEPTIDE1{[Glp].R.P.R.L.[dC].H.K.C.P.[dF].[dA].[dF]}$PEPTIDE1,PEPTIDE1,6:R3-9:R3$$$V2.0; SMILES CC(C)C[C@H](NC(=O)[C@H](CCCNC(=N)N)NC(=O)[C@@H]1CCCN1C(=O)[C@H](CCCNC(=N)N)NC(=O)[C@@H]1CCC(=O)N1)C(=O)N[C@@H]1CSSC[C@@H](C(=O)N2CCC[C@H]2C(=O)N[C@H](Cc2ccccc2)C(=O)N[C@H](C)C(=O)N[C@H](Cc2ccccc2)C(=O)O)NC(=O)[C@H](CCCCN)NC(=O)[C@H](Cc2c[nH]cn2)NC1=O) [Example 6: pE-R-P-R-L-c*-H-K-C*-P-f-a-f-OH]"
2,6.9,"ERPRLCHKCPLPF (HELM PEPTIDE1{[Glp].R.P.R.L.C.H.K.C.P.[Nle].P.F}$PEPTIDE1,PEPTIDE1,6:R3-9:R3$$$V2.0; SMILES CCCC[C@H](NC(=O)[C@@H]1CCCN1C(=O)[C@@H]1CSSC[C@H](NC(=O)[C@H](CC(C)C)NC(=O)[C@H](CCCNC(=N)N)NC(=O)[C@@H]2CCCN2C(=O)[C@H](CCCNC(=N)N)NC(=O)[C@@H]2CCC(=O)N2)C(=O)N[C@@H](Cc2c[nH]cn2)C(=O)N[C@@H](CCCCN)C(=O)N1)C(=O)N1CCC[C@H]1C(=O)N[C@@H](Cc1ccccc1)C(=O)O) [Example 5: pE-R-P-R-L-C*-H-K-C*-P-Nle-P-F-OH (Disulfide C6-C9)]"
